Measurements published in patent publication US20250340595A1 (published 2025).
Starred links: 1 amine or outer side, 2 acyl side, 3 side chain; linkers in the order of their positions; H or OH if unused. Positions of bridges follow the written chain, without caps; N, C: chain ends. Non-standard residues stand in square brackets, D forms with d. No end group written: not given here. Fluorescein = fluorescein label on the C-terminal Lys side chain; TATA = O=C(CC[*:1])N1CN(C(=O)CC[*:2])CN(C(=O)CC[*:3])C1; TATB = O=C(C[*:1])N1CN(C(=O)C[*:2])CN(C(=O)C[*:3])C1; Tle = CC(C)(C)[C@H](N)C(=O)O; Sar = CNCC(=O)O

Biological target: T1, Human TfR1 protein (R&D Systems, 2474-TR or Acro Biosystems, CD1-H5243) (human, UniProt P02786 89-760)
T1 sequence (P02786 89-760 limits assumed): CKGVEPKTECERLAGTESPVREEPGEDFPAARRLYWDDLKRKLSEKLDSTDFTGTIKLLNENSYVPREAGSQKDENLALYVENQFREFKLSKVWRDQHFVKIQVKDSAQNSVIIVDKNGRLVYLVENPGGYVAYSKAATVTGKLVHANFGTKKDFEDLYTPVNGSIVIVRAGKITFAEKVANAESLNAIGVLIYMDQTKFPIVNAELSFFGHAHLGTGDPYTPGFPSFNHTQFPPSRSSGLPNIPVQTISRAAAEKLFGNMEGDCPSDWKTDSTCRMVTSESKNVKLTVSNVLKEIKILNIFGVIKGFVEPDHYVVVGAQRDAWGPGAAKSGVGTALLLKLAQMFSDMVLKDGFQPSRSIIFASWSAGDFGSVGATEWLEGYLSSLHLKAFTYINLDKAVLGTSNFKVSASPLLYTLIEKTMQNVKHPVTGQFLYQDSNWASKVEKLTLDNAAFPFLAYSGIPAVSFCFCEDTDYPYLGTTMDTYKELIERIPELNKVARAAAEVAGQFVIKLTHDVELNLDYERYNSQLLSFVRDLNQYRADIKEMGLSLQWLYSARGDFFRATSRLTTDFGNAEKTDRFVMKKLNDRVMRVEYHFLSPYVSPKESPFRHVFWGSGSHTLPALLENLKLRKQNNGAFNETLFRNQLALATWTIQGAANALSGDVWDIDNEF
Assay: FP competition, competitor BCY15768

Binder | Ki
ACSADDWLGCISYCA (linker 2-10-14 via TATB) [BCY15471] | 0.434 µM
ACPPDSWQGCISYCA (linker 2-10-14 via TATB) [BCY13989] | 0.565 µM

Results, then the binder that gave them:

Ki | Binder
0.075 µM | WGKSCPIDAHLGCISYCA (linker 5-13-17 via TATB (inferred)) [BCY17116]
0.07 µM | IDSNCPNDAHLGCISYCA (linker 5-13-17 via TATB (inferred)) [BCY17118]
0.066 µM | ACSPDAHLGC[Tle]SYCA (linker 2-10-14 via TATB) [BCY16051]
0.03 µM | ACSPDAHLGCISYCPHP-NH2 (linker 2-10-14 via TATB (inferred)) [BCY17115]
0.022 µM | HWMCSPDAHLGCISYCA (linker 4-12-16 via TATB) [BCY17110]
0.086 µM | HTSCSPDAHLGCISYCA (linker 4-12-16 via TATB) [BCY17111]
0.103 µM | ESFCSPDAHLGCISYCA (linker 4-12-16 via TATB) [BCY17113]
0.003 µM | CPXDAYLGCXSYC (3 Cys on TATB; N-terminal acetyl (Ac); core as printed CP[HyP]DAYLGC[tBuGly]SYC) [BCY17991]
0.037 µM | TYMNCPPDAHLGCISYCA (linker 5-13-17 via TATB (inferred)) [BCY17117]
0.005 µM | NWNCPXDAYLGCXSYC (3 Cys on TATB; N-terminal acetyl (Ac); core as printed CP[HyP]DAYLGC[tBuGly]SYC) [BCY17993]
0.16 µM | ACSPDAHLGCISYCEHQE (linker 2-10-14 via TATB (inferred)) [BCY17119]

Biological target: T2, Recombinant cynomolgus TfR1, His6-tagged (a.a. 89-760) (cynomolgus, UniProt H9EXL1 89-760 (rhesus entry))
T2 construct: range 89-760; same product number named for FP and SPR; also called Cyno TfR1; Acro Biosystems TFR-C524a
T2 sequence (chain, as listed by the source): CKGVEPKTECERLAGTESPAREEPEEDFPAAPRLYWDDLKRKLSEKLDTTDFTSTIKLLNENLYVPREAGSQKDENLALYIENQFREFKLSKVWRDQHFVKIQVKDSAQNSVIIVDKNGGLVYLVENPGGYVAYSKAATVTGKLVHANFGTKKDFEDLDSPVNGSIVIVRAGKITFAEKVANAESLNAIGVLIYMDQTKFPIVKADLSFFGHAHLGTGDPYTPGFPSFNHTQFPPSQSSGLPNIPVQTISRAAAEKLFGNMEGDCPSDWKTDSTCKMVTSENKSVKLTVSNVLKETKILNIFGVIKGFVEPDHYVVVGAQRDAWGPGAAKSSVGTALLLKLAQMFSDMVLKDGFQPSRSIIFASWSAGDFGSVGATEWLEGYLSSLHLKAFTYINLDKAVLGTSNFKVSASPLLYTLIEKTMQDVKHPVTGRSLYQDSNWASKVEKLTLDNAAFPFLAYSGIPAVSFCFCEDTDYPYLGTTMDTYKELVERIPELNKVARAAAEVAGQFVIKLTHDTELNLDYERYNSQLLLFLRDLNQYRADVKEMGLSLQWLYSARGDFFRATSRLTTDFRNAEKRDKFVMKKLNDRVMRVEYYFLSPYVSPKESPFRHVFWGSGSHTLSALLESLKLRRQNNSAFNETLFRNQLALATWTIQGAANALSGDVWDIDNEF
Assay: FP competition, competitor BCY15768

Ki | Binder
0.482 µM | ACSPDAHLGC[Tle]SYCA (linker 2-10-14 via TATB) [BCY16051]
4.66 µM | ACSADDWLGCISYCA (linker 2-10-14 via TATB) [BCY15471]
3.44 µM | ACPPDSWQGCISYCA (linker 2-10-14 via TATB) [BCY13989]
0.621 µM | ACPPDAHLGCISYCA (3 Cys on TATB) [BCY16048]

Biological target: T2, Recombinant cynomolgus TfR1, …
Assay: FP competition table (Table 6)

Ki | Binder
1.07 µM | ACSPDAHLGCISYCAXXXXXXK (3 Cys on TATB; [Sar6]; C-terminal Lys carries fluorescein) [BCY15768]
2.91 µM | ACSPDAHLGCIAYCA[Sar][Sar][Sar][Sar][Sar][Sar]K(Fluorescein) (linker 2-10-14 via TATB) [BCY15777]
3.47 µM | ACSPDAHAGCISYCAXXXXXXK (3 Cys on TATB; [Sar6]; C-terminal Lys carries fluorescein) [BCY15774]
1.06 µM | ACSADAHLGCISYCA[Sar][Sar][Sar][Sar][Sar][Sar]K(Fluorescein) (linker 2-10-14 via TATB) [BCY15771]
1.12 µM | ACAPDAHLGCISYCA[Sar][Sar][Sar][Sar][Sar][Sar]K(Fluorescein) (linker 2-10-14 via TATB) [BCY15769]
4.04 µM | ACSPDAHLGCISACA[Sar][Sar][Sar][Sar][Sar][Sar]K(Fluorescein) (linker 2-10-14 via TATB) [BCY15770]
2.3 µM | ACSPDAALGCISYCA[Sar][Sar][Sar][Sar][Sar][Sar]K(Fluorescein) (linker 2-10-14 via TATB) [BCY15773]
7.08 µM | ACSPAAHLGCISYCA[Sar][Sar][Sar][Sar][Sar][Sar]K(Fluorescein) (linker 2-10-14 via TATB) [BCY15772]

Biological target: T1, Human TfR1 protein (R&D Systems, …)
Assay: FP competition, competitor BCY15768
Remark: another data set of the same source

Binder | Ki
ACSADDWLGCISYCA (linker 2-10-14 via TATB) [BCY15471] | 0.434 µM
ACPPDSWQGCISYCA (linker 2-10-14 via TATB) [BCY13989] | 0.565 µM
ACPQDAYLGCISWCA (linker 2-10-14 via TATB) [BCY15467] | 0.133 µM

Next, values leading:

Ki | Binder
0.075 µM | WGKSCPIDAHLGCISYCA (linker 5-13-17 via TATB (inferred)) [BCY17116]
0.07 µM | IDSNCPNDAHLGCISYCA (linker 5-13-17 via TATB (inferred)) [BCY17118]
0.066 µM | ACSPDAHLGC[Tle]SYCA (linker 2-10-14 via TATB) [BCY16051]
0.03 µM | ACSPDAHLGCISYCPHP-NH2 (linker 2-10-14 via TATB (inferred)) [BCY17115]
0.022 µM | HWMCSPDAHLGCISYCA (linker 4-12-16 via TATB) [BCY17110]
0.086 µM | HTSCSPDAHLGCISYCA (linker 4-12-16 via TATB) [BCY17111]
0.103 µM | ESFCSPDAHLGCISYCA (linker 4-12-16 via TATB) [BCY17113]
0.002 µM | CPXDAYLGCXSYC (3 Cys on TATB; N-terminal acetyl (Ac); core as printed CP[HyP]DAYLGC[tBuGly]SYC) [BCY17991]
0.037 µM | TYMNCPPDAHLGCISYCA (linker 5-13-17 via TATB (inferred)) [BCY17117]
0.003 µM | NWNCPXDAYLGCXSYC (3 Cys on TATB; N-terminal acetyl (Ac); core as printed CP[HyP]DAYLGC[tBuGly]SYC) [BCY17993]
0.16 µM | ACSPDAHLGCISYCEHQE (linker 2-10-14 via TATB (inferred)) [BCY17119]

Biological target: T2, Recombinant cynomolgus TfR1, …
Assay: FP direct binding

Kd | Binder
0.707 µM | ACSPDAHLGCISYCAXXXXXXK (3 Cys on TATB; [Sar6]; C-terminal Lys carries fluorescein) [BCY15768]
2.62 µM | ACSSDAYLGCISWCA[Sar][Sar][Sar][Sar][Sar][Sar]K(Fluorescein) (linker 2-10-14 via TATB) [BCY14475]
3.65 µM | ACPPDSWQGCISYCA[Sar][Sar][Sar][Sar][Sar][Sar]K(Fluorescein) (linker 2-10-14 via TATB) [BCY14476]
0.098 µM | ACALCNDWTLPWHHCA[Sar][Sar][Sar][Sar][Sar][Sar]K(Fluorescein) (linker 2-5-15 via TATA) [BCY12652]

Biological target: T3, Recombinant human TfR1, His6-tagged (a.a. 89-760) (human, UniProt P02786 89-760)
T3 construct: range 89-760; captured and coupled on an NTA chip for SPR; also called transferrin receptor 1; CD71
T3 sequence (P02786 89-760 limits assumed): as the sequence (P02786 89-760 limits assumed) above
Assay: SPR, TfR1 on chip

Kd | Binder
0.001 µM | WGKSCPIDAHLGCISYCA (linker 5-13-17 via TATB (inferred)) [BCY17116]
0.12 µM | IDSNCPNDAHLGCISYCA (linker 5-13-17 via TATB (inferred)) [BCY17118]
0.025 µM | ACSPDAHLGC[Tle]SYCA (linker 2-10-14 via TATB) [BCY16051]
0.06 µM | ACSPDAHLGCISYCPHP-NH2 (linker 2-10-14 via TATB (inferred)) [BCY17115]
0.015 µM | HWMCSPDAHLGCISYCA (linker 4-12-16 via TATB) [BCY17110]
0.0083 µM | HTSCSPDAHLGCISYCA (linker 4-12-16 via TATB) [BCY17111]
0.07 µM | ACAPDAHLGCISYCA[Sar][Sar][Sar][Sar][Sar][Sar]K(Fluorescein) (linker 2-10-14 via TATB) [BCY15769]
0.308 µM | ESFCSPDAHLGCISYCA (linker 4-12-16 via TATB) [BCY17113]
0.0034 µM | CPXDAYLGCXSYC (3 Cys on TATB; N-terminal acetyl (Ac); core as printed CP[HyP]DAYLGC[tBuGly]SYC) [BCY17991]
0.0042 µM | TYMNCPPDAHLGCISYCA (linker 5-13-17 via TATB (inferred)) [BCY17117]
0.009 µM | NWNCPXDAYLGCXSYC (3 Cys on TATB; N-terminal acetyl (Ac); core as printed CP[HyP]DAYLGC[tBuGly]SYC) [BCY17993]
0.212 µM | ACSPDAHLGCISYCEHQE (linker 2-10-14 via TATB (inferred)) [BCY17119]

Biological target: T2, Recombinant cynomolgus TfR1, …
Assay: SPR, TfR1 on chip

Binder | Kd
ACPPDSWQGCISYCA (linker 2-10-14 via TATB) [BCY13989] | ~11 µM
ACPPDAHLGCISYCA (3 Cys on TATB) [BCY16048] | 1.28 µM
ACSPDAHLGCISYCAXXXXXXK (3 Cys on TATB; [Sar6]; C-terminal Lys carries fluorescein) [BCY15768] | 3.8 µM
ACSPDAHAGCISYCAXXXXXXK (3 Cys on TATB; [Sar6]; C-terminal Lys carries fluorescein) [BCY15774] | 41 µM
ACSADAHLGCISYCA[Sar][Sar][Sar][Sar][Sar][Sar]K(Fluorescein) (linker 2-10-14 via TATB) [BCY15771] | 4 µM
ACAPDAHLGCISYCA[Sar][Sar][Sar][Sar][Sar][Sar]K(Fluorescein) (linker 2-10-14 via TATB) [BCY15769] | 2.2 µM
ACSPDAALGCISYCA[Sar][Sar][Sar][Sar][Sar][Sar]K(Fluorescein) (linker 2-10-14 via TATB) [BCY15773] | 2.6 µM
ACSPAAHLGCISYCA[Sar][Sar][Sar][Sar][Sar][Sar]K(Fluorescein) (linker 2-10-14 via TATB) [BCY15772] | 99 µM

Further lines, results first:

Kd | Binder
0.474 µM | WGKSCPIDAHLGCISYCA (linker 5-13-17 via TATB (inferred)) [BCY17116]
1.96 µM | IDSNCPNDAHLGCISYCA (linker 5-13-17 via TATB (inferred)) [BCY17118]
1.82 µM | ACSPDAHLGC[Tle]SYCA (linker 2-10-14 via TATB) [BCY16051]
1.24 µM | ACSPDAHLGCISYCPHP-NH2 (linker 2-10-14 via TATB (inferred)) [BCY17115]
0.232 µM | HWMCSPDAHLGCISYCA (linker 4-12-16 via TATB) [BCY17110]
0.907 µM | HTSCSPDAHLGCISYCA (linker 4-12-16 via TATB) [BCY17111]
1.66 µM | ESFCSPDAHLGCISYCA (linker 4-12-16 via TATB) [BCY17113]
0.035 µM | CPXDAYLGCXSYC (3 Cys on TATB; N-terminal acetyl (Ac); core as printed CP[HyP]DAYLGC[tBuGly]SYC) [BCY17991]
0.805 µM | TYMNCPPDAHLGCISYCA (linker 5-13-17 via TATB (inferred)) [BCY17117]
0.235 µM | NWNCPXDAYLGCXSYC (3 Cys on TATB; N-terminal acetyl (Ac); core as printed CP[HyP]DAYLGC[tBuGly]SYC) [BCY17993]
5.65 µM | ACSPDAHLGCISYCEHQE (linker 2-10-14 via TATB (inferred)) [BCY17119]

Biological target: T3, Recombinant human TfR1, His6-tagged …
Assay: SPR, TfR1 on chip
Remark: another data set of the same source

Kd | Binder
450 µM | ACSADDWLGCISWCA (3 Cys on TATB) [BCY13983]
263 µM | ACSADDWLGCISYCA (linker 2-10-14 via TATB) [BCY15471]
376 µM | ACPPDSWQGCISYCA (linker 2-10-14 via TATB) [BCY13989]
132 µM | ACSSDAYLGCISWCA (3 Cys on TATB) [BCY13986]
29.5 µM | ACPQDAYLGCISWCA (linker 2-10-14 via TATB) [BCY15467]

Biological target: T2, Recombinant cynomolgus TfR1, …
Assay: SPR, TfR1 on chip
Remark: another data set of the same source

Kd | Binder
4580 µM | ACSADDWLGCISWCA (3 Cys on TATB) [BCY13983]
4660 µM | ACSADDWLGCISYCA (linker 2-10-14 via TATB) [BCY15471]
3440 µM | ACPPDSWQGCISYCA (linker 2-10-14 via TATB) [BCY13989]
2590 µM | ACSSDAYLGCISWCA (3 Cys on TATB) [BCY13986]
1580 µM | ACPQDAYLGCISWCA (linker 2-10-14 via TATB) [BCY15467]
